Where “and” joins values, the source holds several entries; their conditions need not be identical. Equal entries are not always repeated.
T1: human BTNL8 expressed on cells (HEK-BTNL8 transductants); also endogenous on CaCo-2, HL-60 and primary gut … (human, UniProt Q6UX41 18-500)
T1 construct: also called Homo sapiens butyrophilin like 8
T1 sequence: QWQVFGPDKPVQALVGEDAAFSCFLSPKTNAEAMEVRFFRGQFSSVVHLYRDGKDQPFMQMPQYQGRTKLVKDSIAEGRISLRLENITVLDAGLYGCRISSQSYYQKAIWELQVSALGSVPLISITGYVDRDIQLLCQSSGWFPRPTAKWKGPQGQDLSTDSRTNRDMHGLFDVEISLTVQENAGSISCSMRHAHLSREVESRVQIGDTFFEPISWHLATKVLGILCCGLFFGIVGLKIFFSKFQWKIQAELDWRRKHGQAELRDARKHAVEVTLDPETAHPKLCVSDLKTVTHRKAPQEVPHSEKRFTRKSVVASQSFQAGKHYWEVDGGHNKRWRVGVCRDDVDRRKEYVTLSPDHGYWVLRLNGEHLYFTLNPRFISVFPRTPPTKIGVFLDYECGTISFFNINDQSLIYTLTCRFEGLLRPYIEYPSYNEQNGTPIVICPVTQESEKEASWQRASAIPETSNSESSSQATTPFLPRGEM

T2: human BTNL8/BTNL3 heterodimer expressed on HEK-293T cells (human, UniProt Q6UXE8 18-466)
T2 construct: whole, on cells; also called HEK-BTNL8/BTNL3; HEK-BTNL3/BTNL8
T2 sequence 1: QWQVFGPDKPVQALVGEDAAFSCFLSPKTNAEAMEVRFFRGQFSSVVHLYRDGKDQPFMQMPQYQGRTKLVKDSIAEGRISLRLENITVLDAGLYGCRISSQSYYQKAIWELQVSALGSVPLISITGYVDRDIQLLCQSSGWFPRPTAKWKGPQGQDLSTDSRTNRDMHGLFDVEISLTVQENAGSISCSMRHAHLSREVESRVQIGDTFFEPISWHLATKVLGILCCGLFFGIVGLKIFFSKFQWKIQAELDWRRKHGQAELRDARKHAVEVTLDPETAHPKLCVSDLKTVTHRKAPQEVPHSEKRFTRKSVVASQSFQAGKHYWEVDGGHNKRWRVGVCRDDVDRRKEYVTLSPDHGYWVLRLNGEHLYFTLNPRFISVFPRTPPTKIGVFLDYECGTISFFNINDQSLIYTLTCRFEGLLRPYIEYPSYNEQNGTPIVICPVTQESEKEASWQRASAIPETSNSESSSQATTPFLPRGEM
T2 sequence 2: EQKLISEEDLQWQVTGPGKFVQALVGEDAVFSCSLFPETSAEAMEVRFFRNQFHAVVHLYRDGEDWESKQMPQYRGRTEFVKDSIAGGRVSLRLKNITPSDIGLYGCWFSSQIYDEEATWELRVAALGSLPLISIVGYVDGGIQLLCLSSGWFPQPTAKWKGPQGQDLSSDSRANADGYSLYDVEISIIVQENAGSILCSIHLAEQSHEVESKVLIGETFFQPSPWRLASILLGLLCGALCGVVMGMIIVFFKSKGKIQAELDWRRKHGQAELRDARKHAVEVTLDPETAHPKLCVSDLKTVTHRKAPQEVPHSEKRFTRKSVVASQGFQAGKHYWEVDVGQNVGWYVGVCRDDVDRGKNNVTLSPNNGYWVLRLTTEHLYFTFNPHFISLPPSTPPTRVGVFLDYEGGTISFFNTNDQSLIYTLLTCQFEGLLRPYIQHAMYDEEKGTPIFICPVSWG

T3: human BTNL3 with N-terminal c-Myc tag expressed on HEK-293T cells (human, UniProt Q6UXE8 18-466)
T3 construct: whole, on cells; also called HEK-BTNL3; myc-tagged BTNL3
T3 sequence: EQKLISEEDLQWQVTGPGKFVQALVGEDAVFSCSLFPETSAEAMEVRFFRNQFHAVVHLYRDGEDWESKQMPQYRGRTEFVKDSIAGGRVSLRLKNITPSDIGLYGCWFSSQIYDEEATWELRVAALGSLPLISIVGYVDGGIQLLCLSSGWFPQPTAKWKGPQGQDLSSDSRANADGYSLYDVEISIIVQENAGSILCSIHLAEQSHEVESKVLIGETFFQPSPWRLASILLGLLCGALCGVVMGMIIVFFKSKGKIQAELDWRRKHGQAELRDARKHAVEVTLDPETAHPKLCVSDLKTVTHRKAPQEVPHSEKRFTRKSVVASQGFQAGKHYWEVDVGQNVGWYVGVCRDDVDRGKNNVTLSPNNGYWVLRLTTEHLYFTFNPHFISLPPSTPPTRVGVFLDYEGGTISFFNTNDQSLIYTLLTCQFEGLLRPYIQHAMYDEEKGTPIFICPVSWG

T4: recombinant human BTNL8 protein (BLI) (human, UniProt Q6UX41 18-238, limits assumed)
T4 construct: it may be the same rhBTNL8-Fc as in the Luminex assay; also called hBTNL8; recombinant BTNL8 protein
T4 sequence: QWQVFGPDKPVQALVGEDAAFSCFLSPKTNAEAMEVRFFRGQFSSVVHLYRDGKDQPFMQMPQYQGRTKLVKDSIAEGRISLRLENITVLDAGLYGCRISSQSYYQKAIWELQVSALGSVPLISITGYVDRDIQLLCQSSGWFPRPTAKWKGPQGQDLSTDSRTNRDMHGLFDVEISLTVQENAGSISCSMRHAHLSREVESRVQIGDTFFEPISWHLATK


Assays:
[1] = biological target: T1, human BTNL8 expressed on cells …; assay: flow cytometry on HEK-BTNL8 cells, chimeric format
[2] = biological target: T2, human BTNL8/BTNL3 heterodimer expressed …; assay: flow cytometry on HEK-BTNL3/BTNL8 cells, chimeric format
[3] = biological target: T2, human BTNL8/BTNL3 heterodimer expressed …; assay: cell-based or functional assay
[4] = biological target: T3, human BTNL3 with N-terminal c-Myc tag …; assay: flow cytometry on HEK-BTNL3 cells
[5] = biological target: T4, recombinant human BTNL8 protein (BLI); assay: BLI, recombinant human BTNL8

Row | Binder | EC50 [1] | EC50 [2] | IC50/EC50 of inhibition of Vy4V51TCR reporter cell activation (NFAT-GFP, CD69, TCRV51) [3] | binding result [4] | binding result [5]
1 | chimeric anti-BTNL8 mAb mAbX4 (antibody, V domains shown) VH: EVQLQQSGAELVRPGASVKLSCTASGFNIKDDYMHWVKQRPEQALEWIGRIDPANGNTKYVPKFQDKATITADTSSNTASLQLSSLTSEDTAVYYCARWGIYDGYYYTMDSWGQGTSVTVSS VL: QNVLIQSPAIMSASPGEKVTITCSASSSVSYMHWFQQKPGTSPKLWIYSTSNLASGVPARFSGSGSGTSYSLTISRMEAADAATYFCQQRSRYPYTFGGGTKLEIK | < 0.5 µg/mL and < 3.3 nM | < 0.5 µg/mL and < 3.3 nM | < 0.5 µg/mL and < 3.3 nM |  | 
2 | reference murine antibody mAb X5 (antibody, V domains shown, Murine monoclonal antibody, tested as hybridoma supernatant or purified from it) VH: EVQLQQSGAELVRPGASIKLSCTASGFNIEDDYMHWVRQRPVQGLEWIGRIDPANGNANFAPKFQDKATITADTSSNTAYLQLSSLASEDTAVYYCTREGGLYYGNSDAMDYWGQGTSVTVSS VL: QIVLTQSPAIMSASPGEKVTITCSARSSVSYMQWIQQKPGTSPKLWIYSTSNLASGVPDRFSGSGSGTSYSLTISRMEAEDAATYYCQQRSRYPRTFGGGTKLEIK |  |  |  | no binding | 
3 | chimeric anti-BTNL8 mAb mAbX1 (antibody, V domains shown, also called mAbXl) VH: QVQLQQSGAELARPGASVKLSCKASGYIFTSYGIGWVKQRTGQGLEWIGEVYPRNGHSYYNEKFKGKATLTADRSSSTAYMQLSSLTSEDSAVYFCARGGTGSQLDYWGQGTTLTVSS VL: DIQMTQSPASLSASVGETVTITCRASENIYSYLAWYQQKQGKSPHLLVYNAKTLAEGVPSRFSGSGSGTQFSLRISSLQPEDFGNYYCQHHYGTYTFGGGTKLEIK | < 0.5 µg/mL and < 3.3 nM | < 0.5 µg/mL and < 3.3 nM | < 0.5 µg/mL and < 3.3 nM |  | 
4 | reference murine antibody mAb X1 (antibody, V domains shown, Murine monoclonal antibody, tested as hybridoma supernatant or purified from it) VH: QVQLQQSGAELARPGASVKLSCKASGYIFTSYGIGWVKQRTGQGLEWIGEVYPRNGHSYYNEKFKGKATLTADRSSSTAYMQLSSLTSEDSAVYFCARGGTGSQLDYWGQGTTLTVSS VL: DIQMTQSPASLSASVGETVTITCRASENIYSYLAWYQQKQGKSPHLLVYNAKTLAEGVPSRFSGSGSGTQFSLRISSLQPEDFGNYYCQHHYGTYTFGGGTKLEIK |  |  |  | no binding | 
5 | chimeric anti-BTNL8 mAb mAbX2 (antibody, V domains shown) VH: EVQLQQSGAEFVRPGASVKMSCTGSGLNIEDDYMHWVKQRPEQGLEWIGRIDPANGNTKYGPKFQDKATITADTSSNTAYLQLSSLTAEDTAVYYCTRNYYDGSLYYFDYWGQGTTLTVSS VL: QIVLTQSPAIMSASLGEEITLTCSASSSVSYMHWYQQKSGTSPKLLIYSTSNLASGVPSRFSGSGSGTFYSLTISSVEAEDAADYYCHQWSRYPYTFGGGTKLEIK | < 0.5 µg/mL and < 3.3 nM | < 0.5 µg/mL and < 3.3 nM | < 0.5 µg/mL and < 3.3 nM |  | 

The remaining lines, values ahead:

Row | EC50 [1] | EC50 [2] | IC50/EC50 of inhibition of Vy4V51TCR reporter cell activation (NFAT-GFP, CD69, TCRV51) [3] | binding result [4] | binding result [5] | Binder
6 |  |  |  | no binding |  | reference murine antibody mAb X4 (antibody, V domains shown, Murine monoclonal antibody, tested as hybridoma supernatant or purified from it) VH: EVQLQQSGAELVRPGASVKLSCTASGFNIKDDYMHWVKQRPEQALEWIGRIDPANGNTKYVPKFQDKATITADTSSNTASLQLSSLTSEDTAVYYCARWGIYDGYYYTMDSWGQGTSVTVSS VL: QNVLIQSPAIMSASPGEKVTITCSASSSVSYMHWFQQKPGTSPKLWIYSTSNLASGVPARFSGSGSGTSYSLTISRMEAADAATYFCQQRSRYPYTFGGGTKLEIK
7 | < 0.5 µg/mL and < 3.3 nM | < 0.5 µg/mL and < 3.3 nM | < 0.5 µg/mL and < 3.3 nM |  |  | chimeric anti-BTNL8 mAb mAbX5 (antibody, V domains shown) VH: EVQLQQSGAELVRPGASIKLSCTASGFNIEDDYMHWVRQRPVQGLEWIGRIDPANGNANFAPKFQDKATITADTSSNTAYLQLSSLASEDTAVYYCTREGGLYYGNSDAMDYWGQGTSVTVSS VL: QIVLTQSPAIMSASPGEKVTITCSARSSVSYMQWIQQKPGTSPKLWIYSTSNLASGVPDRFSGSGSGTSYSLTISRMEAEDAATYYCQQRSRYPRTFGGGTKLEIK
8 |  |  |  | no binding |  | reference murine antibody mAb X2 (antibody, V domains shown, Murine monoclonal antibody, tested as hybridoma supernatant or purified from it) VH: EVQLQQSGAEFVRPGASVKMSCTGSGLNIEDDYMHWVKQRPEQGLEWIGRIDPANGNTKYGPKFQDKATITADTSSNTAYLQLSSLTAEDTAVYYCTRNYYDGSLYYFDYWGQGTTLTVSS VL: QIVLTQSPAIMSASLGEEITLTCSASSSVSYMHWYQQKSGTSPKLLIYSTSNLASGVPSRFSGSGSGTFYSLTISSVEAEDAADYYCHQWSRYPYTFGGGTKLEIK
9 |  |  |  |  | no binding | chimeric anti-BTNL8 mAb mAbX3 (antibody, V domains shown) VH: EVQLQQSGAELVRPGASVKLSCTASGFNIKDDYMHWVKQRPEQGLEWIGRIDPANANTKYAPKFQDKATITADTSSNTAYLHLSSLTSEDSAVYYCARNYYDGSPYYFDYWGQGTTLTVSS VL: NIVMTQSPKSMSMSVGERVTLTCKASENVVTYVSWYQQKPEQSPKLLIYGASNRYTGVPDRFTGSGSATDFTLTISSVQAEDAAGYYCHQWSRYPYTFGGGTKLEIK
